In assay [1] the target is T1, recombinant fusion protein containing the entire extracellular domain of human BCMA (amino acids 1-54) in … (human, UniProt Q02223 1-54).
T1 construct: range 1-54; Expressed in HEK cells; also called BCMA antigen; extracellular BCMA antigen; not shown: rabbit Fc domain
T1 sequence (looked up): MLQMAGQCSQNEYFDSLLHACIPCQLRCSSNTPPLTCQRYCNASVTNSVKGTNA
Description: BLI (BLItz), recombinant antibody on the immunising antigen.

The target in assay [2] is T2, human B-cell maturation antigen (BCMA) (human, UniProt Q02223 1-184).
T2 construct: whole, on cells; Endogenous BCMA in tissue sections and BCMA-positive cell lines; also called tumor necrosis factor receptor superfamily member 17; TNFRSF17
T2 sequence (looked up): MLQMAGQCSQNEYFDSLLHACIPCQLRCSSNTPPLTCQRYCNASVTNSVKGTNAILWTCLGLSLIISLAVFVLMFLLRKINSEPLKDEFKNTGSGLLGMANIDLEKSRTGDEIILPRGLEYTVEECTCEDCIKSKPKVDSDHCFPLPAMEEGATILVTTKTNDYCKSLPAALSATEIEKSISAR
The assay can be described thus: standard IHC (Envision FLEX) on reactive lymph node.

Assay [3] concerns the target T3, recombinant fusion protein containing the entire intracellular domain of BCMA (amino acids 78-184) (human, UniProt Q02223 78-184).
T3 construct: range 78-184; also called intracellular BCMA antigen; the antigen
T3 sequence (looked up): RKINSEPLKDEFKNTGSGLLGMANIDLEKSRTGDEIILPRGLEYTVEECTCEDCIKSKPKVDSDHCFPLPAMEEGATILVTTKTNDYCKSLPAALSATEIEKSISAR
The assay can be described thus: BLI (BLItz), recombinant antibody on the immunising antigen.

Assay [4] has as its target T2, human B-cell maturation antigen (BCMA). Description: supersensitive IHC on reactive lymph node.
Assay [5] has the same target. The assay can be described thus: supersensitive IHC on normal colon.

Consider three molecules from patent US20240059782A1 (AGILENT TECHNOLOGIES, published 2024).

B1: anti-human BCMA antibody clone 10A2 (Extracellular) (antibody, V domains shown)
VH: QSVEESGGRLVTPGTPLTLTCTASGFSLTTYAMGWVRQAPGKGLEWIGYIWSSGTTDYASWAKGRFTISKTSPTVDLKMTSPTTEDTATYFCARYINYVTGDLWGQGTLVTVSS
VL: AQVLTQTPSPVSADVGGTVTINCQASQSVYNNVLLAWYQQKAGQPPKLLIYKASTLASGVSSRFKGSGSGTQFTLTISGVQCDDAATYYCQGEFSCSSADCTAFGGGTEVVVKG
notes: Rabbit monoclonal IgG/kappa1; The chains are built here from V + constant entries so that the signal peptide is left out; Supersensitive IHC used B-cell culture supernatant; BLI and standard IHC used recombinant antibody from HEK293-6E cells; also called B cell clone 10A2; BCMA clone 10A2
Consider B1, for which the binding result in assay [1] and in assay [2] was “binds” in each case.

B2: anti-human BCMA antibody clone 5C1 (intracellular) (antibody, V domains shown)
VH: QSLEESRGGLFKPTDTLTLTCTVSGFSLKTYVINWVRQAPGNGLEWIGIIDTGDMTYYASWAKSRSTITRNTNENTVTLKMTSLTAADTATYFCASGDIWGPGTLVTVSS
VL: AQVLTQTASPVSAAVGGTVTINCQASQSVYSNWLSWFQQKPGQPPKRLIYSASTLASGVSSRFKGSGSGTQFTLTISDVQCDDAATYYCLGEFNCARADCRAFGGGTEVVVKG
notes: Rabbit monoclonal IgG/kappa1; also called B cell clone 5C1; intracellular clone 5C1
Regarding B2, the binding result in assay [3] and in assay [4] was “binds” in each case.

B3: anti-human BCMA antibody clone 9H5 (Extracellular) (antibody, V domains shown)
VH: QSLEESGGRLVTPGGSLTLTCTVSGFSLSAYAMSWVRQAPGKGLEWIGYINYDGIAYYTNWAKGRFTISKTSTTVDLKITSPTTEDTAAYFCASDLLGVFNLWGQGTLVTVSS
VL: AAVLTQTASPVSAAVGGTVTINCQASQSVYSNNRLSWFQQKPGQPPKLLIYYASFLASGVPSRFKGSGSGAQFTLTISDLQCDDAATYYCAGGYISYSDNAFGGGTEVVVKG
notes: Rabbit monoclonal IgG/kappa1; The chains are built here from V + constant entries so that the signal peptide is left out; Supersensitive IHC used B-cell culture supernatant; BLI and standard IHC used recombinant antibody from HEK293-6E cells; also called B cell clone 9H5; BCMA clone 9H5
Regarding B3, the binding result in assay [1] and in assay [5] was “binds” in each case.
